Results reported in patent publication US20230089620A1 (JIANGSU HENGRUI PHARMACEUTICALS, published 2023).

B1: A3-21 full-length fully human anti-IL-2 antibody (antibody, human IgG1, lambda, L234A L235A, V domains shown)
VH: EVQLLESGGGLAQPGGSLRLSCAGSGFTFSSYAMSWVRQAPGKGLEWVSGITGTGYRTYYADSVKGRFTVSRDNSRNTVYLQMNSLRAEDTAVYYCVRESGHYYGWFDSWGQGTLVTVSS
VL: QSALTQPPSVSGAPGQRVTISCTGSSSNIGAGYNVHWYQQVPGTVPKLLIDGKGNRPSGVPDRFSGSKSGTSASLAITGLQAEDEADYYCQSYDYMLSGSVVFGRGTKLTVLG
notes: Human IgG1 with LALA mutation
B2: C2-53 full-length fully human anti-IL-2 antibody (antibody, human IgG1, kappa, L234A L235A, V domains shown)
VH: EVQLVESGGGLVQPGRSLILSCAASGFTFDDYAMHWVRQAPGKGLEWVSGISWNSGSIGYADSVKGRFTISRDNAKNSLYLQMNSLRAEDTALYYCAKDQLRWGTYYYYGMDVWGQGTTVTVSS
VL: DIQMTQSPSTLSASVGDRVTITCRASQSVSIWVAWYQQKPGKAPKLLIYKASSLERGVPTRFSGSGSGTEFTLTISSLQPEDFATYHCQQYDTGATFGQGTKVEMKR
notes: Human IgG1 with LALA mutation, kappa light chain
B3: D3-68 full-length fully human anti-IL-2 antibody (antibody, human IgG1, kappa, L234A L235A, V domains shown)
VH: QVQLVQSGPEVKKPGASVKVSCKASGYTFTSYGISWVRRAPGQGLEWMGWISAYNGNTNYAQKLQGRVTMTTDTSTSTAYMELRSLRSDDTAVYYCARDLQSPTYYYGSGVIDYWGQGTLVTVSS
VL: DIQLTQSPSTLSASVGDRVTISCRASRAVSPWLAWYQHRPGQAPKLLIYAASSLQSGVPSRFSGSGSGTDFTLTISSLQPEDFATYYCQQYRSYPFTFGPGTTVDIRR
notes: as for B2
B4: D2-60 full-length fully human anti-IL-2 antibody (antibody, human IgG1, kappa, L234A L235A, V domains shown)
VH: QVQLVQSGAEVKKPGASVKVSCKASGYTFTSYGISWVRQAPGQGLEWMGWISAYNGNTNYAQKLQGRVTMTTDTSTSTAYMELRSLRSDDTAVYYCAREYSSWYSGGMDVWGQGTTVTVSS
VL: DIQMTQSPSSLSASVGDRVTITCRASQGISNYLAWYQQKPGKVPKLLIYAASTLQSGVPSRFSGSGSGTDFTLTISSLQPEDVATYYCQKYDSAPFTFGQGTRLEIKR
notes: as for B2
B5: A2-22 full-length fully human anti-IL-2 antibody (antibody, human IgG1, kappa, L234A L235A, V domains shown)
VH: QVQLVQSGAEVKKPGASVKVSCKASGYTFTSYYMHWVRQAPGQGLEWMGIINPSGGSTSYAQKFQGRVTMTRDTSTSTVYMELSSLRSEDTAVYYCAREDWMEYEYYYGMDVWGQGTLVTVSS
VL: EIVLTQSPGTLSLSPGERATLSCRASQSVSNNYLAWYQQKPGQAPRLLIYGASSRATGIPDRFSGSGSGTDFTLTISRLEPEDFAVYSCQQYGSSPLTFGQGTRLEIKR
notes: Human IgG1 with L234A/L235A (LALA), kappa light chain; expressed in HEK293
B6: B2-15 full-length fully human anti-IL-2 antibody (antibody, human IgG1, kappa, L234A L235A, V domains shown)
VH: EVQLLESGAEVKKPGASVKVSCKASGYTFTSYYMHWVRQAPGQGLEWMGIINPSGGSTSYAQKFQGRVTMTRDTSTSTVYMELSSLRSEDTAVYYCAREGNSSGYYNAFDIWGQGTMVTVSS
VL: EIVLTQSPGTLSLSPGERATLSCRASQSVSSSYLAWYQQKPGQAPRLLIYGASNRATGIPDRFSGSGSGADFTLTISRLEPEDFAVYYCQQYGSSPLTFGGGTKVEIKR
notes: as for B2

The binders below were run against T1, biotin-labeled IL-2 with a human Fc-tag (Sanyou Biopharmaceutical, GenBank Accession No: P60568-1) (UniProt P60568 21-153, biotin-labeled (site not stated)) (assay: Octet: biotin-IL-2-Fc sensor loaded with antibody (500 nM), reading at 230 s of IL-2Rβ-Fc (8000 nM) binding; lower = stronger blocking).
T1 construct: Bought reagent; also called biotinylated IL-2-Fc; not shown: human Fc-tag
T1 sequence (P60568 21-153 limits assumed, one chain of several): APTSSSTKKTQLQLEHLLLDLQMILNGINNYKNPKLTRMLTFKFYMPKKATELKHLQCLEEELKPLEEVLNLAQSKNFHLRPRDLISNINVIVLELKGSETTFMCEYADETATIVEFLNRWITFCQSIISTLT
Description: A Streptavidin biosensor (Fortebio, #18-5020) was immersed in 200 μL of KB buffer (PBS, pH 7.4, 0.05% tween-20, 0.1% BSA) for 60 s for the wetting treatment. […] The IL-2Rβ-Fc (CJ82, Novoprotein) was diluted to a final concentration of 8000 nM with the KB buffer, and the sensor was immersed in the antibody solution for association for 300 s. […] The values at 230 s after the beginning of the binding of IL-2Rβ-Fc were read.

Values for blocking IL-2Rβ at an Octet level	Binder
0.003	B1
0.017	B2
0.027	B3
0.086	B4
0.042	B5
0.056	B6

These binders were tested against T1, biotin-labeled IL-2 with a human Fc-tag … (assay: ELISA, antibody titrated and captured by anti-human IgG, biotin-IL-2-Fc 2 µg/mL).
Description: Anti-human IgG (STAR161, Bio-rad) was diluted to 2 μg/mL with PBS and added at 30 μL/well to coat an ELISA plate, and the plate was incubated overnight at 4° C. The plate was washed with PBST 3 times. The plate was blocked with 1% BSA for 1 h at room temperature and washed with PBST 3 times. […] 30 μL of the antibody solution was added to an ELISA plate, and the plate was incubated at room temperature for 1 h and washed with PBST 3 times. […] The plate was incubated at room temperature for 1 h and washed with PBST 3 times. 30 μL of secondary antibody NeutrAvidin-HRP diluted in a 1:6000 ratio was added. The plate was incubated at room temperature for 1 h and washed with PBST 9 times. 30 μL of TMB was added for color developing for 5-10 min at room temperature, then 30 μL of 2M HCl or H₂SO₄ was added to terminate the reaction. The plate was read for data by a microplate reader at OD 450.

EC50	Binder
1.35 µg/mL	B1
0.73 µg/mL	B2
1.21 µg/mL	B3
1.43 µg/mL	B4
1.29 µg/mL	B5
2.12 µg/mL	B6

What follows are binders tested against IL-2 (C013, Novoprotein) (UniProt P60568 21-153) (assay: SPR (Biacore T200), antibody captured on Protein A chip, IL-2 analyte, 1:1 model).
Chain of IL-2 (C013, Novoprotein) (P60568 21-153 limits assumed): as the sequence (P60568 21-153 limits assumed, one chain of several) above
Description: The solutions flowed at a flow rate of 30 μL/min for dissociation for 300 s. The reaction signals were detected in real time to obtain association and dissociation curves. After the dissociation was completed for each assay cycle, the chip was washed and regenerated with 10 mM Gly-HCl, pH 2.0.

Kd	koff	kon	Binder
0.267 nM	0.00437 s⁻¹	1.64e+07 M⁻¹ s⁻¹	B2
4.72 nM	0.0546 s⁻¹	1.16e+07 M⁻¹ s⁻¹	B3
12.8 nM	0.00651 s⁻¹	509000 M⁻¹ s⁻¹	B4
39.8 nM	0.0527 s⁻¹	1.33e+06 M⁻¹ s⁻¹	B5
30.6 nM	0.0448 s⁻¹	1.46e+06 M⁻¹ s⁻¹	B6

What follows are binders tested against T1, biotin-labeled IL-2 with a human Fc-tag … (assay: competition ELISA: antibody titrated, pre-incubated with biotin-IL-2-Fc (1 µg/mL); competitor coated IL-2Rα-Fc).
Description: (§1) IL-2Rα-Fc (CJ78, Novoprotein) (Accession #NP_000408) was diluted to 0.5 μg/mL with PBS and added at 30 μL/well to coat an ELISA plate, and the plate was incubated overnight at 4° C. The plate was washed with PBST 3 times. The plate was blocked with 1% BSA for 1 h at room temperature and washed with PBST 3 times. […] The plate was incubated at room temperature for 1 h, and washed with PBST 3 times. 30 μL of secondary antibody NeutrAvidin-HRP diluted in a 1:6000 ratio was added, and the plate was incubated at room temperature for 1 h and washed with PBST 9 times. 30 μL of TMB was added for color developing for 5-10 min at room temperature, then 30 μL of 2 M HCl or H₂SO₄ was added to terminate the reaction. The plate was read for data by a microplate reader at OD 450.

IC50	Binder
1.46 µg/mL	B1
0.659 µg/mL	B2
1.2 µg/mL	B3

These binders were tested against T1, biotin-labeled IL-2 with a human Fc-tag … (assay: competition ELISA: antibody titrated, pre-incubated with biotin-IL-2-Fc (5 µg/mL); competitor coated IL-2Rβ-Fc).
Description: as §1, with “IL-2Rβ-Fc (CJ82,” for “IL-2Rα-Fc (CJ78,”, “Novoprotein)” for “Novoprotein) (Accession #NP_000408)”, “8” for “0.5”

IC50	Binder
3.48 µg/mL	B1
1.44 µg/mL	B2
2.13 µg/mL	B3
8.27 µg/mL	B4
2.73 µg/mL	B5
3.04 µg/mL	B6

Each binder was assayed against T2, IL-2-His (CX66, Novoprotein) (UniProt P60568 21-153) (assay: Octet: reading at 230 s of IL-2-His (100 nM) + antibody (500 nM) on biotin-IL-2Rα-Fc sensor; lower = stronger blocking).
T2 construct: Bought reagent; not shown: His tag
T2 sequence (P60568 21-153 limits assumed): as the sequence (P60568 21-153 limits assumed, one chain of several) above
Description: A Streptavidin biosensor (Fortebio, #18-5020) was immersed in 200 μL of KB buffer (PBS, pH 7.4, 0.05% tween-20, 0.1% BSA) for 60 s for the wetting treatment. Then, biotinylated IL-2Rα-Fc (CJ78, Novoprotein) was diluted to 10 μg/mL with the KB buffer, and the sensor was immersed in 200 μL of the solution for 150 s. The sensor was immersed in the KB buffer for 60 s to elute excess IL-2Rα. […] The sensor was immersed in the mixture for 300 s for association. […] The values at 230 s after the beginning of the binding were read.

Values for blocking IL-2Rα at an Octet level	Binder
0.428	B1
0.41	B2
0.473	B3
0.754	B4
0.848	B5
0.7	B6
